Source: patent US20250297009A1

Key:
[1] = target: Human TGF-β1 (Acrobiosystems, TG1-H421) (human) (UniProt P01137); assay: ELISA, human TGF-β1 coated, mouse anti-human Fc-HRP detection
[2] = target: Human TGF-β3 (PeproTech, 100-36E) (human) (UniProt P10600); assay: ELISA, human TGF-β3 coated, mouse anti-human Fc-HRP detection
Chain of Human TGF-β3 (PeproTech, 100-36E) (human) (P10600 301-412 limits assumed): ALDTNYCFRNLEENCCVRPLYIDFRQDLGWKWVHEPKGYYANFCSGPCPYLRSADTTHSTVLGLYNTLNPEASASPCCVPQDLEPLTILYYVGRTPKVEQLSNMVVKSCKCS

Chain of Human TGF-β1 (Acrobiosystems, TG1-H421) (human) (P01137 279-390 limits assumed): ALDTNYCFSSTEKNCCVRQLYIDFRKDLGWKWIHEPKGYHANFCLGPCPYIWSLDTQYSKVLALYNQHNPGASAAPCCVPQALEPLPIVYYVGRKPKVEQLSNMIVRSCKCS

EC50 (read off the curve) [1]: 0.3 nM | EC50 (read off the curve) [2]: 0.2 nM
Substance: TGF-βRII (Fc fusion)
